From publication PMC7094638 (Journal of Molecular Biology, 2007) come the findings set out here.

Read-outs that look alike come from different tables or passages of the source.

Series [1] addresses SARS-CoV N protein NP281-365 (SARS-CoV, UniProt P59595 281-365). Put plainly: EMSA.
Series [2] addresses SARS-CoV N protein NP45-365 (SARS-CoV, UniProt P59595 45-365). The series is described as follows: EMSA.
For series [3], the target named is T1, SARS-CoV N protein CTD (NP248-365) (SARS-CoV, UniProt P59595 248-365). Put plainly: EMSA.
Series [4] addresses SARS-CoV N protein NTD (NP45-181) (SARS-CoV, UniProt P59595 45-181). The series is described as follows: EMSA.
In series [5] the target is T1, SARS-CoV N protein CTD (NP248-365). The series is described as follows: EMSA. The source holds these as a separate data set.
The series “cross-linking” deals with the molecule itself. Put plainly: cross-linking.

Regarding CGAGGCCACGCGGAGUACGAUCGAGGGUACAG (ssRNA) [s2m 32-mer ssRNA], the binding result in series [1] is on record as “no binding”; in series [2] it was “binds”; in series [3], “binds”; in series [4], “binds”.

B1: 32-mer s2m dsDNA (dsDNA)
DNA 1: CGAGGCCACGCGGAGTACGATCGAGGGTACAG
DNA 2: CTGTACCCTCGATCGTACTCCGCGTGGCCTCG
Consider B1, for which the binding result was “binds” in series [5] and “no binding” in series [1].
For the molecule CGAGGCCACGCGGAGTACGATCGAGGGTACAG (ssDNA) [32-mer ssDNA mimic of s2m], the binding result in series [1] was “no binding”; in series [2] it was “binds”; in series [3], “binds”; in series [4], “binds”.

B2: SARS-CoV NP248-365 (C-terminal domain of the SARS-CoV nucleocapsid protein, residues 248-365) (domain or fragment)
chain: TKKSAAEASKKPRQKRTATKQYNVTQAFGRRGPEQTQGNFGDQDLIRQGTDYKHWPQIAQFAPSASAFFGMSRIGMEVTPSGTWLTYHGAIKLDDKDPQFKDNVILLNKHIDAYKTFP
For the molecule B2, the binding result in “cross-linking” is recorded as “binds”.
